Experimental data reported in US20170051040A1 (UNIVERSITE PIERRE ET MARIE CURIE PARIS 6, published 2017).
Non-standard residues stand in square brackets, D forms with d. No end group written: not given here.

Target: CCR2 on mouse monocytes (mouse, UniProt P51683 1-373)
Assay: cell-based or functional assay

Sequence of CCR2 on mouse monocytes (P51683 whole entry): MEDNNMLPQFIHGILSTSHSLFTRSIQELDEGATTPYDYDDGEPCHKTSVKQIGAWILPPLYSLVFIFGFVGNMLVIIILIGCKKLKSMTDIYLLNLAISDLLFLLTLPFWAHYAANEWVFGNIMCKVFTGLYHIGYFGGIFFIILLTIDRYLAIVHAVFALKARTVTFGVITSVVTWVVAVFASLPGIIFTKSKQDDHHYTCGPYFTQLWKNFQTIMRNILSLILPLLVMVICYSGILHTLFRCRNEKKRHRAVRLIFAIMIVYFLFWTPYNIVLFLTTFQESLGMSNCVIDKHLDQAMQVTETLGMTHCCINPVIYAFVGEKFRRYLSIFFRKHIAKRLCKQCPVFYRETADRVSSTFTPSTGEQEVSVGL

inhibition of migration of mouse monocytes and classical monocytes, IC50: 2000 nM
Binder: [dL]G[dT][dF][dL][dK][dC] [ECL1 (C) inverso]
